Results taken from PMC8945853, “Androgen Glucuronidation in Mice: When, Where, and How” (Biology, 2022).

Key:
Assay in all cases: cells, lysate or membranes
[1] = substrate: C[C@]12CCC(=O)C[C@@H]1CC[C@@H]1[C@@H]2CC[C@]2(C)[C@@H](O)CC[C@@H]12; conditions: UDP-glucuronic acid co-substrate, 37 °C, DHT-glucuronide formation
[2] = substrate: C[C@]12CC[C@@H](O)C[C@@H]1CC[C@@H]1[C@@H]2CC[C@]2(C)[C@@H](O)CC[C@@H]12; conditions: UDP-glucuronic acid co-substrate, 37 °C, 17-glucuronide (3α-Diol-17G) formation
[3] = substrate: C[C@]12CC[C@H]3[C@@H](CCC4=CC(=O)CC[C@@]43C)[C@@H]1CC[C@@H]2O; conditions: UDP-glucuronic acid co-substrate, 37 °C, testosterone-glucuronide formation
[4] = table value, text b37 prints 22.5 ± 5.1
[5] = table value, text b37 prints 17.8 ± 2.0

| Protein | Km [1] [µM] | Vmax [1] [µmol/min/mg] | Km [2, 4] [µM] | Vmax [2, 4] [µmol/min/mg] | Km [3] [µM] | Vmax [3] [µmol/min/mg] | Km [2] [µM] | Vmax [2] [µmol/min/mg] | Km [2, 5] [µM] | Vmax [2, 5] [µmol/min/mg] |
| --- | --- | --- | --- | --- | --- | --- | --- | --- | --- | --- |
| Ugt2b5 (Mus musculus) (protein) GKVLVWPMEFSHWMNIKIILDELVQRGHEVTVLRPSAYYVLDPKKSPGLKFETFPTSVSKDNLENFFIKFVDVWTYEMPRDTCLSYSPLLQNMIDEFSDYFLSLCKDVVSNKELMTKLQESKFDVLLSDPVASCGELIAELLQIPFLYSIRFSPGYQIEKSSGRFLLPPSYVPVILSGLGGQMTFIERIKNMICMLYFDFWFQMFNDKKWDSFYSEYLGRPTTLVETMGQAEMWLIRSNWDLEFPHPTLPNVDYVGGLHCKPAKPLPKDMEEFVQSSGDHGVVVFSLGSMVSNMTEEKANAIAWALAQIPQKVLWKFDGKTPATLGHNTRVYKWLPQNDLLGHPKTKAFVTHGGANGVYEAIYHGIPMIGIPLFGEQHDNIAHMVAKGAAVALNIRTMSKSDVLNALEEVIENPFYKKNAIWLSTIHHDQPMKPLDRAVFWIEFVMRHKRAKHLRPLGHNLTWYQYHSLDVIGFLLSCVATTIVLSVKCLLFIYRFFVKKENKMKNE | 35.6 ± 11.5 | 5.05e-05 | 22.7 ± 5.1 | 0.000115 | 65.5 ± 8.6 | 0.000186 |  |  |  |  |
| Ugt2b34 (Mus musculus) (protein) GKVLVWPMEFSHWLNLKTILDELLKKGHEVMVLRPSASLSYEVDNTSAIEFETYPTSYSLSELEEIFWESLKKYIYELPKQSFWGYFLMLQEMVWVDSKYFESLCKDVVFNKELMTKLQKSRFDVILADPFIPCGDLLAEVLKIPLVYSLRFFPGSTYEKYSGGLPLPPSYVPVVMSELSDRMTFMERVRNVIYMLCFDFWFQTFNEKNWNQLYTEVLGRPTTLSETMAKADIWLIRTYWDLEFPHPVLPNFDFIGGLHCRPAKPLPKEIEDFVQSSGEHGVVVFSLGSMVGSITEERANVIAAGLAQIPQKVLWRFEGKKPETLGSNTRLYKWIPQNDLLGHSKTRAFITHGGTNGIYEAIYHGIPVVGIPLFGDQYDNIVHLKAKGAAVRLDFLTMSSTDLHTALKTVTNDPSYKENAMRLSRIHHDQPVKPLDRAVFWIEFVMRHKGAKHLRVAAHDLSWVQYHSLDVLGFLLACVLTVMFILKKCCLFCCQKLTKAGRKKKGE | 54.9 ± 2.9 | 4.31e-05 |  |  |  |  | 16.3 ± 4.8 | 8.5e-06 |  |  |
| Ugt2b1 (Mus musculus) (protein) KVLVWPTEYSHWINMKIILDELVQRGHDVTVLISSASILIGPSNESSINFEIYSAPLSKDDLEYAFEKWVGNWTYELKKLPFWTSYSKLQKISSEYSDMIESFCKAVVWNKSLMKKLQGSKFDVVLADALVPCGELLSELLKTPLVYSLRFCPGYKCEKYSGGLPLPPSYVPVVLSELSDHMTFAERVKNMLQVLLFDFWFQTFNEKSWNQFYSDVLGRPTTLTEMMGKADIWLVRTFWDLKFPHPFLPNFDFVGGLHCKPAKPLPKEMEEFVQSSGEHGVVVFSLGSMVKNIKEEKANVVASALAQIPQKVLWRFDGKKPDTLGSNTRLYKWIPQNDLLGHPKTKAFIAHGGTNGIYEAIYHGIPIVGIPLFGDQPDNINHIVAKGAAVRVDFDTMSTTDLLTALKTVINDPSYKENAMRLSRIHHDQPMKPLDRAVFWIEYVMRNKGAKHLRPALHDLTWFQYHSLDVIGFLLVCVVAVVFIIAKCCLFCCHKTANMGKKKKE | 17.8 ± 0.7 | 0.000238 |  |  | 20.3 ± 0.7 | 5.12e-05 |  |  | 11.7 ± 2.0 | 3.48e-05 |
